B1: high-affinity anti-CD38 antibody 028 (scFv) (scFv, V domains shown)
VH: QVQLVQSGAEVKKPGSSVKVSCKAFGGTFSSYAISWVRQAPGQGLEWMGRIIRFLGIANYAQKFQGRVTLIADKSTNTAYMELSSLRSEDTAVYYCAGEPGERDPDAVDIWGQGTMVTVSS
VL: DIQMTQSPSSLSASVGDRVTITCRASQGIRSWLAWYQQKPEKAPKSLIYAASSLQSGVPSRFSGSGSGTDFTLTISSLQPEDFATYYCQQYNSYPLTFGGGTKVEIK
notes: In the functional rows the scFv stands in a CAR on T cells; source: purified scFv
B2: anti-CD38 scFv antibody RP02 (scFv, V domains shown)
VH: PAQLVESGPGLVKPSGTLSLTCAVSGGSISSSNWWSWVRQPPGKGLEWIGEIYHSGSTNYNPSLKSRVTISVDKSKNQFSLKLSSVTAADTAVYYCAREDYYYYMDVWGKGTTVTVQS
VL: QSVLTQPPSVSAAPGQKVTISCSGSSSNIGNNYVSWYQQLPGTAPKLLIYDNNKRPSGIPDRFSGSKSGTSATLGITGLQTGDEADYYCGTWDSSLSAGVFGGGTKLTVL
notes: selected from a combinatorial scFv phage library; In the functional rows the scFv stands in a CAR on T cells; also called RP02 scFv; source: purified scFv

Assays:
[1] = molecular target: T1, Recombinant human CD38 extracellular domain (amino acids 43–300, hCD38-ECD) (Homo sapiens, UniProt P28907, biotin (EZ-Link NHS-PEG4-biotin) for panning and for capture on the SA biosensor; not said for the cross-linking); assay: BLI; Octet Red96, room temperature; biotin conjugated hCD38-ECD captured on SA biosensor; scFv in PBS, 0.02% Tween-20, 0.05% BSA, pH 7.4; association 300 s, dissociation 1200 s; 1:1 Langmuir model; for RP02 (biphasic dissociation) only the initial 0-330 s fitted, apparent KD; conditions: both partners purified
T1 construct: human CD38, extracellular domain, amino acids 43-300; also called purified CD38; extracellular domain of human CD38; source: bought: Sino Biological, Cat. No. 10818-H08H

[2] = molecular target: T2, ECD domain of mouse CD38 (Mus musculus, UniProt P56528); assay: BLI; purified scFv antibodies against mCD38-ECD on an Octet; set-up for the mouse protein not told; conditions: both partners purified
T2 construct: mouse CD38, extracellular domain; also called mCD38-ECD

[3] = molecular target: T3, CD38 on the cell surface (RPMI8226, Daudi, hPBMC) (Homo sapiens, UniProt P28907); assay: flow cytometry on cells; purified scFv incubated with hPBMC, Daudi or RPMI8226 cells, fluorescence labeled secondary antibody; MFI normalised to that of 028 scFv; conditions: one partner purified
T3 construct: human CD38, endogenous on the surface of RPMI8226, Daudi and PBMC cells; In the functional rows the same protein is also expressed in K562 cells from electroporated CD38 mRNA; also called cell surface CD38; membrane-expressed CD38; source: endogenous, on RPMI8226, Daudi and human PBMC cells

T2 sequence (P56528 45-304): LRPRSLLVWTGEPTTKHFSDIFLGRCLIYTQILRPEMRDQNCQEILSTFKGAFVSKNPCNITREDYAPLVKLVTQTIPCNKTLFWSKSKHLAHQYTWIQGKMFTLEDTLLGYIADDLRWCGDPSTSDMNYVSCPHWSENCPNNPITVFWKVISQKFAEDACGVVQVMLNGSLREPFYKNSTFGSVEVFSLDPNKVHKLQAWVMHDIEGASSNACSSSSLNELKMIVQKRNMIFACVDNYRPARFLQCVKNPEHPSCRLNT

Binder	Kd [1]	binding result [2]	binding result [3]
B1	650 pM		
B2		no binding	binds

— article PMC7967050 (Advanced Science, 2021)
